Tested on: Saccharomyces cerevisiae
Experiment: transcriptional activation domain activity (GFP:mCherry ratio, weighted mean of sorted bins, harmonized to initial dataset scale) (arbitrary fluorescence ratio units); higher = stronger transcriptional activation
Details: beta-estradiol 1 µM; induction time 4 h
How it was run: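 Barcoded tiles were sequenced after cells were sorted into 8 bins by GFP:mCherry ratio. Before sorting, cultures had been diluted 1:5 into SC with 1 uM beta-estradiol and held for 4 hours at 30 °C. The tiles were fused to an estradiol-inducible synthetic transcription factor and integrated at URA3 in yeast diploids carrying a GFP reporter. Activation activity is the read-weighted mean of bin median fluorescence, averaged over barcodes and linearly mapped onto the initial dataset scale, and tiles under 50 reads were left out.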

| Sequence | transcriptional activation domain activity |
| --- | --- |
| MFLFIYFVCVCVFSLSLLWDGVSGWVLFVLDWIGLIGGMCVWAYIIIFYEFLV | 63200 |
| AILLFIELASMGGFTWHLLSGLFFGDVCLIYMDLDDTLFFLFVLVALFSQSFV | 46700 |
| VPMAYHHYIALLIFGAYLSNVNALCVLSLLPLLLHSLFWSLGATNFLLLSVYN | 56600 |
| LQRNILWGMLIFVLAQGLSSTIVVAGFLCTPLSQVWTTPTAIGGPTCINILTF | 61900 |
| RLFAYYRSGWQVSNADVVQLPSWLFTLFLCAVCYLCMTIWYTYLTFQIHCVYW | 66300 |
| LSLWSHTCRHYCSVIRCKHICMILCHIRANNSLIGMIGILLVLNCTILPSNRV | 69900 |
| SHSGVSRSGKRDASRSTSASGLGRNNGNASASGNGSRKGKRRSEGAGGRGKRV | 13500 |
| EPVEAEAQAEAEAETKEPETKSEETAAASTETEKVEDKREATTATEKAQAAAS | < 6570 |
| LYKSYKHAFHDWIYRLYYYLYHCLVELGLSSAAVDIFRACLPSVKMGNIALTY | 63000 |
| EAAHVNGLGIADLDVLLGLNGRSSDVDMTTTLPSLKPPLQNGEIKADSIDNLD | 53300 |
| MMNKTPGFLSLIPPFVIDLILLRCCLDPNISLNVTYRTLYFLMWFFQSVYLAV | 53200 |
| YYGRTIVRTNFWLKTYINFEIDALLLNGRATVRRFINHLYQDQRAKLFKECKH | 54700 |
| MYGYCLLFYLFLFSFISLFYFYFYFYILYFLLLILIFFYFTTVLVSFHFILFF | 43400 |
| ELLVLLDQHWNYSRLRYPICFLSRTASEMLTFVRSMMEWLGGTVSKEDVGEDG | 25800 |
| RYLNITGRCRCSLQDLSFSVLLIRSLGAPLVELHVCCLYWWFGAYRLRFIFFI | 55000 |
| AFLLFLIYLTFFCWVCFATSATWVWSEILSDNQYTESFMPINDVLLAVLSGII | 38700 |
| YYLGKYQENSKEKRKFQVIRSGMSELNHILYMALDNATNMVIMWMLLVQYHAT | 55600 |

| Sequence | transcriptional activation domain activity |
| --- | --- |
| HTQENEKVMWNIGSWNAPSLTNSWDSPPGNRTGAVTIGDESINGSEMPDFSLD | 36100 |
| KQYCVRPNSGRIEPGKDVEVQVLLQAMKEDPAPDAKCRDKFLVQSVAVTADKE | 44600 |
| LSIFSWMSWIAPESLNLSTITGFNNGLGINPWPTWDWNTLLFDAADPLMIPFF | 39700 |
| LLLLLDRFIDRNHLLDHIKIGTSDLLNLPGQRSIYISRLCRAICILGYNVNND | 30400 |
| DQDAVMEDAPEANAETESQNSRRRRSRGKGRKSGASMAENVKVEQQAEAGSEN | 29300 |
| MPFRNCFACIICCSWLLYLDVLLILSMYSIYFMGGFARYLFWFIYWFFGIMEL | 44800 |
| AESQSSRATHTRKRAKQACRQCNARRVRCNVAESQPCANCRSSGSACELLPSK | 26200 |
| VPTVFMAIIQEFASFLYLYQMMCMWVWYYFQYYQMGLVQTIIILMAAFIRVFL | 65400 |
| SLAVRTGAELGQDASMDDAEARNMDGNLDVDLAELSLGQRLTAVNGTEGAGRS | 19700 |
| MLRVPGSWFGMLFMGLLVSRERLSLLASLLFFVQVIFIRLLVVFWMICGGQIP | 31400 |
| LRLLVAWLIPQLEMWLHTNMGVRFLLIEYTPEHLGTVLALREFIGDHMFKVAG | 49000 |
| LFICRYTSDGQFIGNQNGCYNLVPVYDWIKRCVISIFVVFFIAFLPLFLQELC | 56900 |
| KTVEEIWRISQGAVEGEEKGREREKAGLCVRACGASWHSQVLCAALVEVVGLS | 41700 |
| DGSNGIAQLFGVVFFLFFFLHIYYICWALGLVGFVSGRRGNIVWFVLLCLFLS | 63800 |
| GYIVFLSMVMIHTDSRLDHLGKRSVLSEENSKNSWQLLVLFLHQLSTYWLLPK | 57900 |
| MHTLLTILQTLHILVIFNTIVYPVCLFEICCFAWYFIPFAFRFLCLCFFFLFL | 55000 |
| KVVLTERLARGKAEIKDLQVCFECMSLVGMKINIFKGNGFMWTIACSVLFQKG | 52100 |

— the supplement of paper PMC12636428
